B1: Regulatory protein NPR1 (Arabidopsis thaliana (Mouse-ear cress)), P93002 (parent)
chain: MDTTIDGFADSYEISSTSFVATDNTDSSIVYLAAEQVLTGPDVSALQLLSNSFESVFDSPDDFYSDAKLVLSDGREVSFHRCVLSARSSFFKSALAAAKKEKDSNNTAAVKLELKEIAKDYEVGFDSVVTVLAYVYSSRVRPPPKGVSECADENCCHVACRPAVDFMLEVLYLAFIFKIPELITLYQRHLLDVVDKVVIEDTLVILKLANICGKACMKLLDRCKEIIVKSNVDMVSLEKSLPEELVKEIIDRRKELGLEVPKVKKHVSNVHKALDSDDIELVKLLLKEDHTNLDDACALHFAVAYCNVKTATDLLKLDLADVNHRNPRGYTVLHVAAMRKEPQLILSLLEKGASASEATLEGRTALMIAKQATMAVECNNIPEQCKHSLKGRLCVEILEQEDKREQIPRDVPPSFAVAADELKMTLLDLENRVALAQRLFPTEAQAAMEIAEMKGTCEFIVTSLEPDRLTGTKRTSPGVKIAPFRILEEHQSRLKALSKTVELGKRFFPRCSAVLDQIMNCEDLTQLACGEDDTAEKRLQKKQRYMEIQETLKKAFSEDNLELGNSSLTDSTSSTSKSTGGKRSNRKLSHRRR
partner: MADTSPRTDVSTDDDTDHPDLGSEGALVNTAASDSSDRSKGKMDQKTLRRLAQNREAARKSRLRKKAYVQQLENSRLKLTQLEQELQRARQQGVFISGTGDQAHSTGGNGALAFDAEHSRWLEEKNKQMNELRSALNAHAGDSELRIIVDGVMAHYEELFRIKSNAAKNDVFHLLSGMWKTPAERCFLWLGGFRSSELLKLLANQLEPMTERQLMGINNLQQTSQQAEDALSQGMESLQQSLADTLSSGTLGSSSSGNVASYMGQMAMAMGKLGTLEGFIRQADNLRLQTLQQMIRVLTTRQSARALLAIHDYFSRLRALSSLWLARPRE
B2: Regulatory protein NPR1 (Arabidopsis thaliana (Mouse-ear cress)), P93002 (parent)
chain: B1 chain
partner: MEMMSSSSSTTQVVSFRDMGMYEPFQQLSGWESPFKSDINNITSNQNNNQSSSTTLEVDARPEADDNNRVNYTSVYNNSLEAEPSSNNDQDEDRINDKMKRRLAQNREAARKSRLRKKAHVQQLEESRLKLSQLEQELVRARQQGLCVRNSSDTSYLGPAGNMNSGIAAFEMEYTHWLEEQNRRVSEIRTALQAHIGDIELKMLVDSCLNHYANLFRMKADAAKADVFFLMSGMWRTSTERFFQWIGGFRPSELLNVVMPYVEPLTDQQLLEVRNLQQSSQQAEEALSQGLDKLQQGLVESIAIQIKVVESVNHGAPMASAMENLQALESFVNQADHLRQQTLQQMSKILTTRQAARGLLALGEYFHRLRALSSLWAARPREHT

Variants of: B1
Details: with tga2_arath TGA2, P43273
In the case of MDTTIDGFADSYEISSTSFVATDNTDSSIVYLAAEQVLTGPDVSALQLLSNSFESVFDSPDDFYSDAKLVLSDGREVSFHRCVLSARSSFFKSALAAAKKEKDSNNTAAVKLELKEIAKDYEVGFDSVVTVLAYVYSSRVRPPPKGVSEYADENCCHVACRPAVDFMLEVLYLAFIFKIPELITLYQRHLLDVVDKVVIEDTLVILKLANICGKACMKLLDRCKEIIVKSNVDMVSLEKSLPEELVKEIIDRRKELGLEVPKVKKHVSNVHKALDSDDIELVKLLLKEDHTNLDDACALHFAVAYCNVKTATDLLKLDLADVNHRNPRGYTVLHVAAMRKEPQLILSLLEKGASASEATLEGRTALMIAKQATMAVECNNIPEQCKHSLKGRLCVEILEQEDKREQIPRDVPPSFAVAADELKMTLLDLENRVALAQRLFPTEAQAAMEIAEMKGTCEFIVTSLEPDRLTGTKRTSPGVKIAPFRILEEHQSRLKALSKTVELGKRFFPRCSAVLDQIMNCEDLTQLACGEDDTAEKRLQKKQRYMEIQETLKKAFSEDNLELGNSSLTDSTSSTSKSTGGKRSNRKLSHRRR [C150Y], the “effect of a mutation on the interaction” value is reported as “disrupting interaction”.

Variants of: B2
Details: with tga3_arath TGA3, Q39234
MDTTIDGFADSYEISSTSFVATDNTDSSIVYLAAEQVLTGPDVSALQLLSNSFESVFDSPDDFYSDAKLVLSDGREVSFHRCVLSARSSFFKSALAAAKKEKDSNNTAAVKLELKEIAKDYEVGFDSVVTVLAYVYSSRVRPPPKGVSECADENCCHVACRPAVDFMLEVLYLAFIFKIPELITLYQRHLLDVVDKVVIEDTLVILKLANICGKACMKLLDRCKEIIVKSNVDMVSLEKSLPEELVKEIIDRRKELGLEVPKVKKHVSNVHKALDSDDIELVKLLLKEDHTNLDDACALHFAVAYCNVKTATDLLKLDLADVNHRNPRGYTVLYVAAMRKEPQLILSLLEKGASASEATLEGRTALMIAKQATMAVECNNIPEQCKHSLKGRLCVEILEQEDKREQIPRDVPPSFAVAADELKMTLLDLENRVALAQRLFPTEAQAAMEIAEMKGTCEFIVTSLEPDRLTGTKRTSPGVKIAPFRILEEHQSRLKALSKTVELGKRFFPRCSAVLDQIMNCEDLTQLACGEDDTAEKRLQKKQRYMEIQETLKKAFSEDNLELGNSSLTDSTSSTSKSTGGKRSNRKLSHRRR [H334Y] was tested, and the “effect of a mutation on the interaction” value was “decreasing interaction strength”. For MDTTIDGFADSYEISSTSFVATDNTDSSIVYLAAEQVLTGPDVSALQLLSNSFESVFDSPDDFYSDAKLVLSDGREVSFHRCVLSARSSFFKSALAAAKKEKDSNNTAAVKLELKEIAKDYEVGFDSVVTVLAYVYSSRVRPPPKGVSECADENCCHVACRPAVDFMLEVLYLAFIFKIPELITLYQRHLLDVVDKVVIEDTLVILKLANICGKACMKLLDRCKEIIVKSNVDMVSLEKSLPEELVKEIIDRRKELGLEVPKVKKHVSNVHKALDSDDIELVKLLLKEDHTNLDDACALYFAVAYCNVKTATDLLKLDLADVNHRNPRGYTVLHVAAMRKEPQLILSLLEKGASASEATLEGRTALMIAKQATMAVECNNIPEQCKHSLKGRLCVEILEQEDKREQIPRDVPPSFAVAADELKMTLLDLENRVALAQRLFPTEAQAAMEIAEMKGTCEFIVTSLEPDRLTGTKRTSPGVKIAPFRILEEHQSRLKALSKTVELGKRFFPRCSAVLDQIMNCEDLTQLACGEDDTAEKRLQKKQRYMEIQETLKKAFSEDNLELGNSSLTDSTSSTSKSTGGKRSNRKLSHRRR [H300Y], the “effect of a mutation on the interaction” value was “decreasing interaction strength”. MDTTIDGFADSYEISSTSFVATDNTDSSIVYLAAEQVLTGPDVSALQLLSNSFESVFDSPDDFYSDAKLVLSDGREVSFHRCVLSARSSFFKSALAAAKKEKDSNNTAAVKLELKEIAKDYEVGFDSVVTVLAYVYSSRVRPPPKGVSECADENCCHVACRPAVDFMLEVLYLAFIFKIPELITLYQRHLLDVVDKVVIEDTLVILKLANICGKACMKLLDRCKEIIVKSNVDMVSLEKSLPEELVKEIIDRRKELGLEVPKVKKHVSNVHKALDSDDIELVKLLLKEDHTNLDDACALHFAVAYCNVKTATDLLKLDLADVNHRNPRGYTVLHVAAMRKESQLILSLLEKGASASEATLEGRTALMIAKQATMAVECNNIPEQCKHSLKGRLCVEILEQEDKREQIPRDVPPSFAVAADELKMTLLDLENRVALAQRLFPTEAQAAMEIAEMKGTCEFIVTSLEPDRLTGTKRTSPGVKIAPFRILEEHQSRLKALSKTVELGKRFFPRCSAVLDQIMNCEDLTQLACGEDDTAEKRLQKKQRYMEIQETLKKAFSEDNLELGNSSLTDSTSSTSKSTGGKRSNRKLSHRRR [P342S] was tested, and the “effect of a mutation on the interaction” value was “decreasing interaction strength”. With MDTTIDGFADSYEISSTSFVATDNTDSSIVYLAAEQVLTGPDVSALQLLSNSFESVFDSPDDFYSDAKLVLSDGREVSFHRCVLSARSSFFKSALAAAKKEKDSNNTAAVKLELKEIAKDYEVGFDSVVTVLAYVYSSRVRPPPKGVSEYADENCCHVACRPAVDFMLEVLYLAFIFKIPELITLYQRHLLDVVDKVVIEDTLVILKLANICGKACMKLLDRCKEIIVKSNVDMVSLEKSLPEELVKEIIDRRKELGLEVPKVKKHVSNVHKALDSDDIELVKLLLKEDHTNLDDACALHFAVAYCNVKTATDLLKLDLADVNHRNPRGYTVLHVAAMRKEPQLILSLLEKGASASEATLEGRTALMIAKQATMAVECNNIPEQCKHSLKGRLCVEILEQEDKREQIPRDVPPSFAVAADELKMTLLDLENRVALAQRLFPTEAQAAMEIAEMKGTCEFIVTSLEPDRLTGTKRTSPGVKIAPFRILEEHQSRLKALSKTVELGKRFFPRCSAVLDQIMNCEDLTQLACGEDDTAEKRLQKKQRYMEIQETLKKAFSEDNLELGNSSLTDSTSSTSKSTGGKRSNRKLSHRRR [C150Y] the “effect of a mutation on the interaction” value was “decreasing interaction strength”.
